# Laboratory results published in PMC3085397 (Immunity, 2011).
# Biological target: the molecule itself
# Assay: SEC-MALS
Protein,binding result,stoichiometry N
"FOXP3 forkhead domain F373A (IPEX mutation) (domain or fragment, human) MRPPFTYATLIRWAILEAPEKQRTLNEIYHWFTRMFAAFRNHPATWKNAIRHNLSLHKCFVRVESEKGAVWTVDELEFRKKR",binds,
"FOXP3 forkhead domain double mutant (W348Q and M370T) (domain or fragment, human) MRPPFTYATLIRQAILEAPEKQRTLNEIYHWFTRTFAFFRNHPATWKNAIRHNLSLHKCFVRVESEKGAVWTVDELEFRKKR",binds,
"FOXP3 forkhead domain F371C (IPEX mutation) (domain or fragment, human) MRPPFTYATLIRWAILEAPEKQRTLNEIYHWFTRMCAFFRNHPATWKNAIRHNLSLHKCFVRVESEKGAVWTVDELEFRKKR",,2
